In general, Km refers to the substrate concentration at which the rate is half of its maximum.

Substrate in series [1]: C[C@]12CC[C@@H]3c4ccc(O)cc4CC[C@H]3[C@@H]1CC[C@@H]2O
The experiment in a line: Activity of SULT1E1 (unknown origin). The series is classed as ADME, Homo sapiens.

Substrate in series [2]: C#C[C@]1(O)CC[C@H]2[C@@H]3CCc4cc(O)ccc4[C@H]3CC[C@@]21C
In words: Activity of human SULT1A1 expressed in Escherichia coli at 6 uM by Michaelis-Menten equation analysis in presence of PAPS. The series is classed as ADME.

Substrate in series [3]: C[C@]12CC[C@@H]3c4ccc(O)cc4CC[C@H]3[C@@H]1CC[C@@H]2O
In words: Activity of human SULT1A1 expressed in Escherichia coli at 20 uM by Michaelis-Menten equation analysis in presence of PAPS. The series is classed as ADME.

B1: Sulfotransferase 1E1 (Homo sapiens) (protein)
chain: MNSELDYYEKFEEVHGILMYKDFVKYWDNVEAFQARPDDLVIATYPKSGTTWVSEIVYMIYKEGDVEKCKEDVIFNRIPFLECRKENLMNGVKQLDEMNSPRIVKTHLPPELLPASFWEKDCKIIYLCRNAKDVAVSFYYFFLMVAGHPNPGSFPEFVEKFMQGQVPYGSWYKHVKSWWEKGKSPRVLFLFYEDLKEDIRKEVIKLIHFLERKPSEELVDRIIHHTSFQEMKNNPSTNYTTLPDEIMNQKLSPFMRKGITGDWKNHFTVALNEKFDKHYEQQMKESTLKFRTEI
For B1, the Km in series [1] worked out at 0.004 µM.

B2: Sulfotransferase 1A1 (Homo sapiens) (protein)
chain: MELIQDTSRPPLEYVKGVPLIKYFAEALGPLQSFQARPDDLLISTYPKSGTTWVSQILDMIYQGGDLEKCHRAPIFMRVPFLEFKAPGIPSGMETLKDTPAPRLLKTHLPLALLPQTLLDQKVKVVYVARNAKDVAVSYYHFYHMAKVHPEPGTWDSFLEKFMVGEVSYGSWYQHVQEWWELSRTHPVLYLFYEDMKENPKREIQKILEFVGRSLPEETVDFVVQHTSFKEMKKNPMTNYTTVPQEFMDHSISPFMRKGMAGDWKTTFTVAQNERFDADYAEKMAGCSLSFRSEL
With B2, the Km in series [2] was determined as 0.45 µM; in series [3] it was 0.36 µM.
